PMC7790537 (PLoS ONE, 2021)

B1: F11 IgA1 polymer (antibody, V domains shown)
VH: QVQLVQSGAEVKRPGSSVRVSCRTSGGSFTSFAISWVRQAPGQGLEWMGRITRILGVPNYAQKFQGRVTITADMPTTTAYLDLTNLRSEDTAVYYCARDSGTSHGDFDYWGQGTLVTVSS
VL: EIVLTQSPVTLSLSPGERATLSCRASQNVINSLVWYQQKPGQAPRLLIYGASNRATGIPARFRGSGSGTDFTLTIDSLEPEDIAVYYCQQRGTWLWSFGQGTKVEIK
B2: F11 IgA2m2 monomer (antibody, V domains shown)
VH: B1 VH
VL: B1 VL
B3: F11 IgA2m2 polymer (antibody, V domains shown)
VH: B1 VH
VL: B1 VL
B4: F11 IgA1 monomer (antibody, V domains shown)
VH: B1 VH
VL: B1 VL

target: recombinant trimeric HA of A/Puerto Rico/8/1934 (H1N1) (influenza A virus A/Puerto Rico/8/1934 …, UniProt P03452); test: cell-based or functional assay
Sequence (P03452 18-528): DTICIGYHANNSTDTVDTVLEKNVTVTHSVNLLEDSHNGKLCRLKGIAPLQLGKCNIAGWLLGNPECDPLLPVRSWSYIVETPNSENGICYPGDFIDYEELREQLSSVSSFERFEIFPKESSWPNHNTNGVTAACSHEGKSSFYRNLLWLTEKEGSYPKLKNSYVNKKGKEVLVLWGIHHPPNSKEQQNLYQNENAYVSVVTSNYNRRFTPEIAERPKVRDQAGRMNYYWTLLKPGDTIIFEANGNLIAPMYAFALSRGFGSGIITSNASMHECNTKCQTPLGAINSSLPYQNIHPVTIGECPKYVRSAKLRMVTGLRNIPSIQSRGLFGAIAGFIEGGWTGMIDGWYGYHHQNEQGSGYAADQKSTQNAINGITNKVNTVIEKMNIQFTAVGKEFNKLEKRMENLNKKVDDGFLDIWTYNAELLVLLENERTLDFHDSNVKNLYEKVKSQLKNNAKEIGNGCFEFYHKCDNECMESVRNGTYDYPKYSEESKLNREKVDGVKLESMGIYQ

| Binder | HI activity, minimum HI concentration, PR8 virus | NI activity, EC50 (NI-ELLA), PR8 virus | NT activity, minimum virus-neutralizing concentration, PR8 virus |
| --- | --- | --- | --- |
| B1 | 500 µg/mL | 222 ng/mL | 25 µg/mL |
| B2 | 500 µg/mL | 683 ng/mL | 89.1 µg/mL |
| B3 | 500 µg/mL | 418 ng/mL | 50 µg/mL |
| B4 | 354 µg/mL | 301 ng/mL | 50 µg/mL |
